Measured values reported in patent US20180037631A1 (Bristol-Myers Squibb, published 2018).
Where a chain is given by its changes, count along the chain named. Where “and” joins values, the source holds several entries; their conditions need not be identical. Equal entries are not always repeated. Where two headings read alike, the source gives them in different places.

B1: I1 IGF-IR 10Fn3-based binder, His-tagged monomer (designed binder)
chain: MGVSDVPRDLEVVAATPTSLLISWSARLKVARYYRITYGETGGNSPVQEFTVPKNVYTATISGLKPGVDYTITVYAVTRFRDYQPISINYRTEIDKPSQHHHHHH
B2: E1 EGFR 10Fn3-based binder, His-tagged monomer (designed binder)
chain: MGVSDVPRDLEVVAATPTSLLISWVAGAEDYQYYRITYGETGGNSPVQEFTVPHDLVTATISGLKPGVDYTITVYAVTDMMHVEYTEHPISINYRTEIDKPSQHHHHHH
B3: E3 EGFR 10Fn3-based binder, His-tagged monomer (designed binder)
chain: B2 chain with V25L, A26P, A28K, E29L, D30R, V57R, D79N, T86S, H88Y

Experiments:
[1] = target: T1, IGF-IR on human tumour cells (H292, MCF-7, RH41) (human, UniProt P08069 31-1367); assay: [125I]-IGF-I competition on MCF-7 cells
T1 construct: whole, on cells; also called IGF1R; IGFR

[2] = target: T1, IGF-IR on human tumour cells (H292, …); assay: cell-based or functional assay
[3] = target: T2, IGF1R-Fc (extracellular domain of human IGF1R aa 1-932 fused to hinge and constant regions of human IgG1) (human, UniProt P08069 31-932); assay: SPR Biacore, IGF-IR-Fc captured on Protein A
T2 construct: range 1-932; made in house by transient transfection, purified on Protein A; also called IGF-IR-Fc; not shown: hinge and constant regions of human IgG1

[4] = target: T1, IGF-IR on human tumour cells (H292, …); assay: cell-based or functional assay; remark: listed apart in the source
[5] = target: T2, IGF1R-Fc (extracellular domain of human …)
[6] = target: T1, IGF-IR on human tumour cells (H292, …); assay: cell-based or functional assay; remark: listed apart in the source
[7] = target: T3, EGFR on the surface of human tumour cells (A431, H292) (human, UniProt P00533 25-1210); assay: cell-based or functional assay
[8] = target: T2, IGF1R-Fc (extracellular domain of human …); assay: SPR Biacore
[9] = target: T1, IGF-IR on human tumour cells (H292, …); assay: IGF-I competition for IGF-IR binding
[10] = target: T1, IGF-IR on human tumour cells (H292, …); assay: cell-based or functional assay; remark: listed apart in the source
[11] = target: T4, Recombinant human EGFR-Fc (aa 1-645 of the extracellular domain of human EGFR fused to human Fc) (human, UniProt P00533 25-645); assay: BIAcore
T4 construct: range 1-645; bought from R&D Systems; also called EGFR645-Fc; EGFR-Fc (HER-1); not shown: human Fc

[12] = target: T4, Recombinant human EGFR-Fc (aa 1-645 of …)
[13] = target: T4, Recombinant human EGFR-Fc (aa 1-645 of …); assay: SPR Biacore
[14] = target: T3, EGFR on the surface of human tumour …
[15] = target: T3, EGFR on the surface of human tumour …; remark: listed apart in the source
[16] = target: T3, EGFR on the surface of human tumour …; assay: cell-based or functional assay; remark: listed apart in the source
[17] = target: T3, EGFR on the surface of human tumour …; assay: cell-based or functional assay; remark: listed apart in the source
[18] = target: T3, EGFR on the surface of human tumour …; assay: cell-based or functional assay; remark: listed apart in the source
[19] = target: T3, EGFR on the surface of human tumour …; assay: cell-based or functional assay; remark: listed apart in the source
[20] = target: T3, EGFR on the surface of human tumour …; remark: listed apart in the source
[21] = target: T4, Recombinant human EGFR-Fc (aa 1-645 of …); remark: listed apart in the source
[22] = target: T4, Recombinant human EGFR-Fc (aa 1-645 of …); remark: listed apart in the source
[23] = target: T4, Recombinant human EGFR-Fc (aa 1-645 of …); remark: listed apart in the source

Row | Binder | inhibition of IGF1-stimulated IGF1R phosphorylation (Y1131), H292 cells, ELISA, IC50 [6] [nM] | inhibition of EGF-stimulated EGFR phosphorylation (Y1068), H292 cells, ELISA, IC50 [7] [nM] | H292 pIGF-IR IC50 (ELISA) [10] | Kd [11] [nM] | Kd [13] [nM] | IC50 [15] [nM] | Inhibition of H292 Proliferation IC50 [16] [nM] | Inhibition of PERK IC50 [16] [nM] | Inhibition of pEGFR IC50 [16] [nM] | IC50, EGF-stimulated EGFR phosphorylation, H292 cells, ELISA [17] [nM] | % inhibition of EGFR phosphorylation at 100 nM binder, cell-based assay [18] [%] | A431 pEGFR IC50 (In-Cell Western) [19] [nM] | A431 pERK IC50 (In-Cell Western) [19] [nM] | H292 pEGFR IC50 (ELISA) [19] [nM] | IC50 [20] [nM] | also measured
1 | B1 | 18 | > 6210 | 0.2 nM |  |  |  |  |  |  |  |  |  |  |  |  | IC50 [1]: 8 nM; Inhibition of RH41 Proliferation IC50 [2]: 28 nM; Inhibition of pIGFR IC50 [2]: 0.2 nM; Kd [3]: 0.11 nM; IC50, IGF1-stimulated IGFR phosphorylation, H292 cells, ELISA [4]: 0.4 nM; Kd [5]: 0.11 nM; koff [5]: 0.000434 s⁻¹; kon [5]: 3.84e+06 M⁻¹ s⁻¹; Kd [8]: 0.11 nM; IC50 [9]: 8 nM
2 | B2 | > 3500 | 7 | > 3.4 µM | 14.6 | 9.92 | 15.9 | 18 | 17 | 18 | 8 | 85.9 | 24 | 13 | 9 | 0.53 | Kd [12]: 9.92 nM and 13.2 nM; koff [12]: 0.00118 s⁻¹ and 0.00189 s⁻¹; kon [12]: 119000 M⁻¹ s⁻¹ and 143000 M⁻¹ s⁻¹; IC50 [14]: 14 nM
3 | B3 |  |  | > 7 µM | 0.72 | 3.4 | 4.75 | 26 | 97 | 11 | 21 | 87.5 | 15 | 11 | 22 | 0.87 | koff [21]: 0.000398 s⁻¹; kon [21]: 283000 M⁻¹ s⁻¹; Kd [22]: 1.4 nM; IC50, EGF-stimulated EGFR phosphorylation, A431 cells, In Cell Western [17]: 14 nM; Kd [23]: 3.4 nM
